How the values were obtained:
SpSiw14; Siw14-(1-287) = biological target: T1, SpSiw14; Siw14-(1-287) (Schizosaccharomyces pombe, UniProt Q9UUF3); assay: inhibition of p-nitrophenylphosphate hydrolysis; format: biochemical
T1 construct: full length aa 1-287, E. coli BL21(DE3), His10Smt3 tag removed with Ulp1, monomer by gel filtration
T1 sequence (Q9UUF3 1-287): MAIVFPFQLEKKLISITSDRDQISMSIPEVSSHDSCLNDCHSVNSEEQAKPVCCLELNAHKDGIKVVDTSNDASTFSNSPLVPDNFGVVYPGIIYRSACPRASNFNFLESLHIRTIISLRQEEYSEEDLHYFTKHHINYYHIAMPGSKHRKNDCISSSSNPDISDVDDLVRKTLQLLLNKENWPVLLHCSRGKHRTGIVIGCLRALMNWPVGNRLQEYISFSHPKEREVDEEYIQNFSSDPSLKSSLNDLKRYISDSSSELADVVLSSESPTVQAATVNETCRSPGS
From the text: inhibition of p-nitrophenylphosphate hydrolysis on SpSiw14; Siw14-(1-287) | Phosphate and sulfate elicited a similar concentration-dependent inhibition of SpSiw14 phosphatase activity with an IC50

Cys403 = Cys403 (UniProt position 403, RPVIHCRAGVG); assay: chemical modification; settings: cited from earlier work
[1] = substrate: O=P(O)(O)OP(=O)(O)O; assay: phosphate release by Malachite Green, Michaelis-Menten fit; format: biochemical, Schizosaccharomyces pombe; settings: 25 mM Tris-acetate pH 5.0, 1 mM DTT, 37°C, no divalent cation, apparent kcat per PPi consumed
purified protein = substrate: O=[N+]([O-])c1ccc(OP(=O)(O)O)cc1; assay: purified protein; format: biochemical, Schizosaccharomyces pombe; settings: 25 mM Tris-acetate pH 5.0, 1 mM DTT, 37°C, no divalent cation

Molecule `O=P(O)(O)O` [inorganic phosphate] has an IC50 (SpSiw14; Siw14-(1-287)) of roughly 5 mM.

`O=S(=O)(O)O` [sulfate] showed an IC50 (SpSiw14; Siw14-(1-287)) of roughly 5 mM.

For “Yersinia protein tyrosine phosphatase (Yersinia PTPase, YopH/Yop51) (Yersinia sp. (species not stated in the article; inferred Yersinia enterocolitica))”, the pKa (Cys403) is listed as 4.67.

B1: SpSiw14; Siw14-(1-287) (Schizosaccharomyces pombe 972h-) (protein)
chain: T1 sequence (Q9UUF3 1-287)
notes: full length aa 1-287, E. coli BL21(DE3), His10Smt3 tag removed with Ulp1, monomer by gel filtration
In the case of B1, the Km [1] is reported as 1130 ± 340 µM, the kcat [1] is reported as 0.443 ± 0.0817 s⁻¹ and the Km (purified protein) is reported as 1640 ± 180 µM. It also gave a kcat (purified protein) of 1.24 ± 0.045 s⁻¹.

Source: PMC10653929, “Activities, substrate specificity, and genetic interactions of fission yeast Siw14, a cysteinyl-phosphatase-type inositol pyrophosphatase” (mBio, 2023)
